Source: US10174359 (JAPANESE FOUNDATION FOR CANCER RESEARCH, dated 2019)

Molecular target: T1, myc-tagged mouse separase, wild-type (WT) (mouse, UniProt P60330 1-2118)
T1 construct: Studied in HeLa cell extracts by co-immunoprecipitation and immunoblot; also called wild-type separase; wild-type mouse separase; not shown: myc tag
Assay: immunoprecipitation with securin from anaphase cell extract, immunoblot for separase-myc (FIG. 7A)
Experimental: Typically, the cell extracts are mixed with […] of agarose beads conjugated to anti-myc tag (manufactured by MBL), or protein A beads (manufactured by Bio-RAD) coupled to the desired antibodies, and incubated for 2 hr at 4° C., then washed three times with IP buffer and three times with TBS-T (150 mM sodium chloride, 20 mM Tris pH 8.0, 0.05% (v/v) Tween 20) and then subjected to analysis.
In the wild-type mouse separase replaced cell and SA mutant mouse separase replaced cell, the cell cycle arrest by Monastrol, was cancelled. Forty minutes after cancellation of the cell cycle arrest by Monastrol a cell population enriched in anaphase cells was prepared. Then, a cell extract was obtained and subjected to immunoprecipitation with cyclin B1 and securin to analyze the presence or absence of separase-myc. As a result, separase having a small molecular weight, i.e., cleaved separase, is observed.

T1 sequence (P60330 whole entry): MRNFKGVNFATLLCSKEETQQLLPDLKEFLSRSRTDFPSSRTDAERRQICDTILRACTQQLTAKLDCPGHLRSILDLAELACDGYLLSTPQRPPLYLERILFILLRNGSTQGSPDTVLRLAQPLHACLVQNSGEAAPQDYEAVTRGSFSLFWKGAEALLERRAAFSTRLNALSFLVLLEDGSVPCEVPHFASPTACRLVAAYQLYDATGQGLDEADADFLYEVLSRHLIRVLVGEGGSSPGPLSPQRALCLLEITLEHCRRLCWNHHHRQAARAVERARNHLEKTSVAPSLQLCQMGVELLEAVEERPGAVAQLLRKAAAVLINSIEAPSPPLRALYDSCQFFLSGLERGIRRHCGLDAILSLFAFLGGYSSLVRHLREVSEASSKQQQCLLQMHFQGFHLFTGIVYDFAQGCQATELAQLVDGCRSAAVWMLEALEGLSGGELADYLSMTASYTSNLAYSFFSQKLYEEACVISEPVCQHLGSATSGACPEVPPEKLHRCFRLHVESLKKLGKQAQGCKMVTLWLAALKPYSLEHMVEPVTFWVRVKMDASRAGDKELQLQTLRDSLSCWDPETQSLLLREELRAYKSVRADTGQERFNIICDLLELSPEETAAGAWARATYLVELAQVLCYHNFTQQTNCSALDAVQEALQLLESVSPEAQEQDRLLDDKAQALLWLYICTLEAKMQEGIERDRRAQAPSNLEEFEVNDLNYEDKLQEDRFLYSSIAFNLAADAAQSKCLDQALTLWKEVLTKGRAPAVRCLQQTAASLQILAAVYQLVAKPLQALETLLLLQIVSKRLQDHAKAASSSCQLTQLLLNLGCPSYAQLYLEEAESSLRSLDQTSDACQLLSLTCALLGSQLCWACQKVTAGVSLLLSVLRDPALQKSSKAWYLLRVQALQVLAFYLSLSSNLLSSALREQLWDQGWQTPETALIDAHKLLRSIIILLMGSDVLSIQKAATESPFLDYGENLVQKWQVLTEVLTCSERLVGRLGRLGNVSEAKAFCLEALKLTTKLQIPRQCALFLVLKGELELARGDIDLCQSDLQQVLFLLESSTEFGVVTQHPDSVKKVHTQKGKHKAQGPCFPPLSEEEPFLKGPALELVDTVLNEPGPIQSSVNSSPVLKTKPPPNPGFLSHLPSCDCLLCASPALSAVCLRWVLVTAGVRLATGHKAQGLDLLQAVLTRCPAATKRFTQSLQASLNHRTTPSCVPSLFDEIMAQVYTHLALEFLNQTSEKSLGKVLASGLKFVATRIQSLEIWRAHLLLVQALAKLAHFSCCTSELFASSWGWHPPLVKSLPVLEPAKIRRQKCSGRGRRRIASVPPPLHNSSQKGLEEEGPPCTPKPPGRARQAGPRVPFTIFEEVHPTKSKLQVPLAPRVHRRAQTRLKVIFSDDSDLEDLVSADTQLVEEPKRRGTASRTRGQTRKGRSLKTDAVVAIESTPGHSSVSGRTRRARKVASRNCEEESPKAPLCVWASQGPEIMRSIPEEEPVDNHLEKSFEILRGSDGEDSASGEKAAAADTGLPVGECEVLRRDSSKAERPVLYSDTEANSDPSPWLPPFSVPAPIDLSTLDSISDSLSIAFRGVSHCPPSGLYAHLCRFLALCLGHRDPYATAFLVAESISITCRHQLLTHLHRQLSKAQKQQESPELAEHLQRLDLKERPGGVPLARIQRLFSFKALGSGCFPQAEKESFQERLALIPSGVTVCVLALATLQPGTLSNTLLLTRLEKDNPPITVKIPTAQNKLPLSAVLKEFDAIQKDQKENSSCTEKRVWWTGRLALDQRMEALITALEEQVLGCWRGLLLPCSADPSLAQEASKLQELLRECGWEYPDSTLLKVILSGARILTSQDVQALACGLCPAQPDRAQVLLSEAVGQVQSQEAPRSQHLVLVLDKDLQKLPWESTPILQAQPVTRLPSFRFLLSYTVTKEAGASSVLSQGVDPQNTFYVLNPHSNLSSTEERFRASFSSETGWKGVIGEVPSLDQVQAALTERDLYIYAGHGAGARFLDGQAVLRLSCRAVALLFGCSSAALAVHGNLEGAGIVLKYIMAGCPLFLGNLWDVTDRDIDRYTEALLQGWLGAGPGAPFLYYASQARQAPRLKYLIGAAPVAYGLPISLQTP

B1: securin (other, UniProt O95997 2-202, looked up)
chain: ATLIYVDKENGEPGTRVVAKDGLKLGSGPSIKALDGRSQVSTPRFGKTFDAPPALPKATRKALGTVNRATEKSVKTKGPLKQKQPSFSAKKMTEKTVKAKSSVPASDDAYPEIEKFFPFNPLDFESFDLPEEHQIAHLPLSGVPLMILDEERELEKLFQLGPPSPVKMPSPPWESNLLQSPSSILSTLDVELPPVCCDIDI
notes: Endogenous protein in HeLa cell extracts
B1: binds.
